A protein production outcome set (Wang et al. 2014)

Assay: label from the status in PepcDB records

Row | Sequence | protein production
1 | MVKGLVVAGALLMASGCQMLQSMMPAGDEEMPRVREGTLAALPATETRQVQGIEAGSGPTDDVSIETVMESYKALLPLVDDPRKQVTIRHRLADLEFQRAERKMADTAVDELAGAIEAYQRLLSEYPEREGNDKIYYQLARAWELRGATPQQLDTLDTLVRRYPDSDYWIEAQFRRGDLLFIDGRYREAEQAFDEVTLASQERMADASFLVNAHYMKGWSLFKQAQYQEALFSYVEVLDLVMPEGQPVEDVDQRSQTLIEDLFRVVGLSLSYLDGAETLQALFRQTGGRPYEILVYDRYSELLVEREQYGDAIDVFEAYIEDHPASPWAPRYHIRIIDTLELAGFTRTVPERKADFVSLYGIYSDYWQSAGPDAMGFIEQQLEQLLPELADRQYLLAGESSDQQQADDHYRKAASYYAEFAATFPDHPRTPERLFLLGETYLELEDWAEAIAAFERVAYDYPQDTVSGRAAEAGYASVLAFREYSITWNSLPISEQAAYQELQQLNRLRFANAFPEDPRAPAVYYIALQHEFDRNNWEETVNMAARLVTWQPTPSAELTTEALLLSGHSLSELARYSEAEQAYRDALATMAEDDERRSGVRENLAAAVYRQAEQLADAGNVEAAVGEFLRVGTVVPESALRANAEYDAASLLITANLWEQAIGVLTSFRQAFPDHELIDTVPAKLALAYRETAQWERAADELQQMVALATTPEERRENLLIAAELYDQAGNRDKAIDTWRNYANSHPEPADVYMEAANRLAELYQEADDTVKRDYWLRKQMETVDRNPDAADDRMRYLAASASATLAREALARYDSIRLTLPLNESMTAKTDALERAVNAYKKTASYGLSSFATEAGYQIAHIYGRLGADLMDSERPTGLSELELAQYELLLEEQAYPFEDNAIDIHEQNIRRAREGIFDEWVKRSYEALKVLLPGRYRKEEVTSGVVYELD | failed
2 | MKFRIDTFTLLLLGAIVLASFLPVTGQAAEALGTAGTIAVALLFFFHGAALSRQQIIDGATHWRLHILITALTFVFFPLAVLPVNELNTIAPEWMPKDLGLGFLYLGVLPSAVSSSIAYTAMARGNVPAAICSAAASNVFGMMLTPFLLLLLVSTSGAGEFSVAEALKDIVLQLLLPFAVGHALRPWLGGYLSRNESLMARYDQCVIWIIVYSAFSHSVVSGLWQNLPVQAIVLAILICFGLLGLFMLIARLMVRKLGFSLEDEAAVVFCGSKKSLASGLPMAKVLFSGHPGFGMIVLPIMCYNQIQVIVGAILAQKYREKIQQAKSAPAHASENGCQNR | failed
3 | MELFTEAWAQAYCRKLNESEAYRKAASTWEGSLALAVRPDPKAGFPKGVAVVLDLWHGACRGAKAVEGEAEADFVIEADLATWQEVLEGRLEPLSALMRGLLELKKGTIAALAPYAQAAQELVKVAREVA | not failed
4 | YLIKFDRIAVPMAEGRSSRRVLHIAFAFASAMGSEITAITVRDQAKDITWTNKITVVTNAYKEGLSQNIKVVPKILTSSDVKSALVEELNRHSYDIVIIASEKRSIITRITSGPVSNYVIKKSNIPTALV | failed
5 | AYQPIRYRETGKVGELTFEFYNGAMSTEQCQRLVSALRWAKARDTQVLLVRGGRGAFSNGVHLNVIQAAEVPGLEAWANIQAIDDVCLELLTARQLVVSGLTGNAGAGGLMLALAADVVLARADTVYNPHYKSMGLYGSEYWTYSLPRAVGQAMAKQLTEACLPISALQALQMGMVQEIGPRC | failed
6 | MTLSFFRPRARKVTAAVLLMTWLAPVSPLALAQPASVPAAPAGAAAAEQVQSNLNRSVQIGRQSPYLQKDATIIDAPTYELPDMGDPSTAALSPEMERRLGDRVMRQIRRDPDYVPDPLLSDYLNDIGYRLIEAARRQHVAGSTSASSFELFAVRDPGINAFALPGGYIGVNTGTLVATESESELASVLGHEIGHVLQRHIARGIDKSGESMWIALASILLAGLAATKSGDAAQALAVGGQAAAVSNQLAFSRGAEREADRVGFTLLTGAGYNPDGMPDFFRRLQRVSSIADTGAVPGYARTHPLTGERIADMEDRARGLPHPRQPQRPAFGFAKARARVLQETSTSAYLDVRNAMRSQLASAPDAPAEKRAALWYGIAVAEQLAGQLDPAEQALLEARRLYGNIPGLTSGSPSLDVTAIELARARNRVPEALTMARAALAAYPLSRAVGITYAQTLLAAGRAGDAIPYLQDKAREDTAQPIWWDMLARAYADQGKRVEQHRALAEKYARDGAWGAAVEQLKLARDAGDADFYTLSEVDARLHQMERQYREEKQEEKALPK | failed
7 | MGRKRGNAIMEKTKIDIISGFLGAGKTTLIKKLLKDAFQGEQVVLIENEFGEIGIDGGFLKEAGIQIREMNSGCICCSLVGDFGASLKEVISKYHPDRILIEPSGVGKLSDVIKAVQGVEEETGLVLNSYTTVVDAKKCKMYMRNFGEFFNNQVEYAGAIIMSRTDIVDEAKAQASLELLREINSKAAIITTPIEKLEGKKLLEVMEHPVSLADELMEEEEVCPECGHVHEHGEHHHHDHDEECGCGHDHDHEEHEHHHHDHDEECGCGHDHAHEEHEHHHHDHDHECGCGHDHHDHHHHHADEVFTSWGRETIKKYTKENLEKMLEALSASDEYGIILRAKGMLPAEDGTWIYFDMVPEETEIREGAPEYTGRLCVIGSKLNEDKLAELFGL | failed
8 | MNDDKDVVIDQIYYISTDPSATTYPTTFSVSLVDNSVAGRPFFYVVGKSTMRVDRNTTLRVEEDSKLVEKYNETYGKKYLPFPEGTYSFSTNEVTINQGDNFSSDTIFISFSNWDKLSKIDKYLLPVSLKAVDDKGAVSMDRNLIYFIADFSTTNTGYNKPAAWKPLDRTDWDVSFSYAYGYDEAQFGGRLAVDGDVSTTWFTWGVVSAGECWWATTLPAPTHLTGFSLTRQTTFGSSYNVREAKVKVKKEGDTEWTEAGLFRFGSFKGNDPQYAVFIPAVENVKEFRIDIVSPADFTGFAELDLYQLEHHHHHH | failed
9 | MQNNKTKLLDEVATYYAEKLAEHGDTPRGVDWNGEESQTIRFEQLCKVIDPKKMPGFSLNDLGCGYGALLDYLRDKYAACIYLGVDVSHEMIKAARQRHTAANQARFITSTEPDQVADYGVASGIFNVRLERTDAEWFDYLLGTLDVLNRTSSLGFAFNCLTSYSDEDKKRDYLYYADPCRLFDLCKRRYSRQVALLHDYGLYEFTILIRKALEHHHHHH | failed
10 | MAFAYPKLSEPDTKGEYADGKYKTEGTATEDYTERFQEEIQKVADDNFPGKKNVHLPWKETKEGDIAFIFKNPKKKPILTDSRGKPLKEGTVIRGGSKIRIAGVIAAWEKGAKRGVSLWPDAVRVIKLSEGLEHHHHHH | failed
11 | MIQCILVMLGGGIGAVIRGFVTDVFNQKFNTSLPIPTLLINVVGSFCIGLLMGMCLNINWINPFIIVGILGGLTTFSTLSSELVKLLTTPKQINLFILYSILQYGVSFVACLLGYYLF | failed
12 | MSMLKKTKEFFGLAPYEAEHEDAYYADEPRYEGTAAYAPEYRERDYGYAPEAPAPVAPSPAPRSYQSTIVPVELHSFEDAQVIGGAFRDGDAVVFDMSLLSREEARRIVDFAAGLCFALRGKMQKIDSVTFAVVPELSNISTSELERAARIRLEHHHHHH | not failed
13 | MGINEIIMYIMMFFMLIAAVDRILSQFGGSARFLGKFGKSIEGSGGQFEEGFMAMGALGLAMVGMTALAPVLAHVLGPVIIPVYEMLGANPSMFAGTLLACDMGGFFLAKELAGGDVAAWLYSGLILGSMMGPTIVFSIPVALGIIEPSDRRYLALGVLAGIVTIPIGCIAGGVIAMYSGVQINGQPVEFTFALILMNMIPVLIVAVLVALGLKFIPEKMINGFQIFAKFLVALITIGLAAAVVKFLLGWELIPGLDPIFMAPGDKPGEVMRAIEVIGSISCVLLGAYPMVLLLTRWFEKPLMNVGKLLNVNNIAAAGMVATLANNIPMFGMMKQMDTRGKVINCAFAVSAAFALGDHLGFAAANMNAMIFPMIVGKLIGGVTAIGVAMMLVPKDDAAQVKTEAEAQS | failed
14 | MLLLSIYISIAIGISFICSVLEAVLLSISPSYIAQLNQQGHPAAEQLSKLKSDIDRPLASILTLNTIAHTIGAATAGAQAAVVFGSEALGIFSAVLTLAILVLSEIVPKTIGATYWRQLAPAAAVSLRWMVWALTPFVWFSEQITKRLARNHEAPKMRDELSAMAILARESGEFAEGESKILSNLLGIQDVPVTQVMTPRPVVFRVDATMTINEFLDKHKDTPFSRPLVYSEQKDNIIGFVHRLELFKMQQSGSGQKQLGAVMRPIQVVLNNTALPKVFDQMMTHRLQLALVVDEYGTVLGLVTLEDIFEHLVGEEIIDEADKSTDMQELAYQRWESWKEMHGVIESRDDDDEELEKQNVEPETQEPTKPDSKES | failed
15 | MYIPKYFKVTNAEEIWNFVQENSFGTVVTTEQGKPIATHLPLGFNKKDDHYYITGHFAYGNPQWRTFEACEDVLVMFQGPHAYISSSWYSRENVPTWNYQAVHMYGKASMLEKDELAEELTIMLEQKTPTQAFSVLWDKLSPKLLESELKGIVGFKIKVEDIQAAYKLSQN | failed
16 | LAAMSIDLGSQFIKIGLVKPGVPMDIVLNKESRRKTPNVISFKNDERFFAEAAAAMSSSHPQSSYNFLLSMIARKEGDDAFVTFQKTFPFTAFEFDEVRKTVVFPYKEEKYNVETLLAMILWNAKKVTEAYADQTVKDVVITVPIFLNQAERRAIASAAEIAGLNLLQLLNDGSAAALNYGVFRRKEITEKPTHMLIYDMGAVKTTATIVQYVLESTRKDGKDKQPTLRTVGVGFDKTLGGLEITNRLRDHLEKVFRDTVKTSKDISTNARAIGKLHKEAERVKQVLSANKDTYAQVESLFEEQNFRAKVTREELEKMIEDLEPRIAAPILDAIGMAQISTNDIDLVVLMGAGTRVPKVKEILKTILKDKEISNFLNTDEAIAMGAVYQAAHLSKSFKVLPFNVHEKILYPVFVNFLTKTEEGTMKPIRKSLFGENYPVPNRVMHFSSYSDDFKIDIQDADKNPLSTVEISGVKDAIEKEVTDE | failed
17 | MQRANREHLEIISLEEISMLVSSDFDLPEVLQHVTAKVATQLKVSVCNIYLREGDEVVLAATHGFDPAFIGKIRIKIGDGITGSVARDGQYISLSRASQDPRYRYFPELQEEKYNSMLSFPIGDKKEVYGVINLNTTSIRSFHEDEIYFVSIIANLILTAIKLRQQVASSRKAAEASA | not failed
18 | MAETTPKVKGHVVILPYPVQGHLNPMVQFAKRLVSKNVKVTIATTTYTASSITTPSLSVEPISDGFDFIPIGIPGFSVDTYSESFKLNGSETLTLLIEKFKSTDSPIDCLIYDSFLPWGLEVARSMELSAASFFTNNLTVCSVLRKFSNGDFPLPADPNSAPFRIRGLPSLSYDELPSFVGRHWLTHPEHGRVLLNQFPNHENADWLFVNGFEGLEETQDCENGESDAMKATLIGPMIPSAYLDDRMEDDKDYGASLLKPISKECMEWLETKQAQSVAFVSFGSFGILFEKQLAEVAIALQESDLNFLWVIKEAHIAKLPEGFVESTKDRALLVSWCNQLEVLAHESIGCFLTHCGWNSTLEGLSLGVPMVGVPQWSDQMNDAKFVEEVWKVGYRAKEEAGEVIVKSEELVRCLKGVMEGESSVKIRESSKKWKDLAVKAMSEGGSSDRSINEFIESLGK | failed
19 | MQKGKDLTLRLMIVDDSVESAETIVTALRNGGIAVRPSRPQSQEELASMLSGQIDLAILGQAQQIPMSALQTQIAGSGKDIPILLLAERIEENALVEAASHGVRAIALRHRPAHLLALVRSEWDDLQARRGLRRIEAQMRETERRCDALIASSRDPIAYVHEGMHIRANDAYLEMFGFESFDDVEGISLLDMIAAQYVDDFKQLLKAMSKGEPPPAQYKLDARRVEGDTFPATMEFATATYEGEPCIQVVFRRREEFDPELAREVEDLRQRDQVTGLLNRPTFMVALEQAVAQAGRSEGQSGFLLIEPDHYARILPEFGLDSADALIAALAAHVASVLDDSVLAARFGEHSFALLLNGNYARTHALAETVRNAFAQHVFSVGTRSATVTVSIGGVQIGEKIASIGQVLNRGTEAVRTTAELGGNAVSIYDPAAADRAEEERIERWVEQLREALVGDGFLLHYQPVLNLQGEPLELYQAFLRLERNGEMMSPNAFMAIAEEHDLVTEIDRWVVARAIRQLGERQRAGHKTHLLVRIGPNSFSDPQMIDTIREQLAVYGVPGERLWLQTPESKVFTHLRNAQQFLAAVSAMDCKVGLEQFGSGLDSFQLLAHFHPAFLKLDRGITGDIASARDSQEKIREITSRAQPAGILTMAEFVADAQSMSSFFSAGVDYVQGDFVAPTGPLMNYEFG | failed
